Molecular target: ZEBOV-VP40蛋白C端的特异的抗原肽13肽 […] (扎伊尔型埃博拉病毒 (Zaire ebolavirus))
Test: indirect ELISA on coated VP40 peptide (hybridoma screening, P/N≥2.1 positive)

B1: 抗埃博拉病毒VP40蛋白单克隆抗体F1B4 (antibody, V domains shown)
VH: EVRLQQSGPELGKPGASVKISCKTSGYVFTEYTIHWMKQSHGKSLEWIGNIYPKNGGTAYSQKFKGRATLSADKSSRTAYIELRSLTSEDSAVYYCARDNYGFDCWGQGTTLTVSS
VL: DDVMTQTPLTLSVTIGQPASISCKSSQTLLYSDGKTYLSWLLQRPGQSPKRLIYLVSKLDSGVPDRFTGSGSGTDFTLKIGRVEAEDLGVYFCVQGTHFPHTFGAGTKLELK
B1: binds.

— CN108424448A (UNIV ZHEJIANG, dated 2018)
